Source: the supplement of paper PMC9170038

What follows are sequences tested on MS2 coat protein (assay: apparent KD of MS2 coat protein; higher = weaker reporter binding). Settings: Eterna round: R107; input ligand: theophylline 20 uM.
How it was run: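 Apparent KD is reported per design as the median of normalised binding-curve fits across its clusters. The RNA switches were made by on-chip transcription from Illumina sequencing clusters. SNAP-549-labelled MS2 coat protein was then added in twofold steps (0.7 or 1.5 nM to 3 µM; 0.8–1.5 h to 10–20 min per step) in 100 mM Tris-HCl pH 7.5, 80 mM KCl, 4 mM MgCl2, without or with constant ligand.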

Sequence	apparent KD of MS2 coat protein
UGUAUGUGAUCUGAUACCAGUCCAACUGGUAAAACACGAGGAUCACCCGUGUAAAAUUGGGACCCUUGGCAGCAGAUCGCAUACU	51.9 nM
AAUGAGUGGUGGUCAAACAUGGGUGAUCAACGAGGACCGGUACGGCCGCCACUCGAUAACAUGAGGAUCACCCAUGUAAUAAUAA [|T'-M'-Trp-Ms2|_Design9]	492 nM
AAGACAUGAGGAUCACCCAUGUGGAGGGAUACCAGCCUGUGUGUGGGCCCUUGGCAGCUUAAAUUUAAUUUAAUUAAAUAAAUUU [Same State - Theophylline A]	41.6 nM
GAUCCGUACCAGACCUUCAAUGGACUCAGUCGAGGACCGGUACGGCCGCCACUCGGAGAAGAACAUGAGGAUCACCCAUGUGAUG [theeternabot_exclusion_MS2_Trp_A_36]	47 nM
UCGGGAACAUGAGGAUCACCCAUGUCAGAAGGAGCGCUGAGAGAAGCAGGUAGGUCGCUGACGCAGGAGCUCUCUUCCUGUACGC [#22 Exclusion - Arginine A]	46.4 nM
AUACAUGAGGAUCACCCAUGUCAUACAGAAGGAGCGUCACAUAAGACAGGUAGGUCGCUGAUAUAUACGUCACGAAUAGUGACGA [JR_SSArginiA_Sub017]	23.5 nM
UGUACAUAAUUAGGUUACCUAUGUACAGAAGGAGCGUCGAUGACGACAGGUAGGUCGCUGUUAACAUGAGGAUCACCCAUGUACA [Arg A Ex t4]	46.2 nM
UGUAUGUGAUUUGAUACCAGUCCAACUGGUAAAACAUGAGGAUCACCCAUGUAAAAUUGGGACCCUUGGCAGCAAAUCGCAUACU [SSTheo B #21]	346 nM
GCACCAGGUACGGAUACCAGCUAUAGGCCCAAUGGGCGACAUGAGGAUCACCCAUGUAAUGGCCCUUGGCAGCUGUACCUGGUGC [SSThB NP+V+V2 #11 +-Same Structure]	67.2 nM
AUACACCUCGUCCAGGCAAUCUUUAGUGAUACCAGCUAACUCCGUGGCCCUUGGCAGCACAUGAGGAUCACCCAUGUGCGACAUC [Bioninen]	13.4 nM
GCUAGGUCUACGGCCGCCACUAGACGUGGGUAAGACAUGAGGAUCACCCAUGUACUACAGGCGAAUAGGACCGGGUAGACCUAGC [SSTB NP+V+V2 #12 Same Structure]	55 nM
CGCGUCCCGGACGAUACCAGAUAUGAGCGACACAUGAGGAUCACCCAUGUCAAUCAUGAGAUCCCUUGGCAGCGUUUGCACAACU [theeternabot_sameState_MS2_Theo_B_8]	210 nM
AGGGAACAUGAGGAUCACCCAUGUGCCGAUACCAGUGAUUUUCAGCACCCUUGGCAGCGGAACCUUUGUUAUAUUAUUCUUAGGG [theeternabot_sameState_MS2_Theo_A_25]	42.4 nM
GGGUGGUAGGCGGCCGCCACUGAUUUUUAUAUAUAUAUAACAUGAGGAUCACCCAUGUAGAUAUGCAGGACCGGGCCUGUUGUUU [aaaM]	37.8 nM

Same assay, conditions: Eterna round: R107; input ligand: theophylline 2 mM

Sequence	apparent KD of MS2 coat protein
GCACCAGGUACGGAUACCAGACAUUGCCGUUAGGGUGAACAUGAGGAUCACCCAUGUUUUGUCCCUUGGCAGCCGUACCUGGUGC [ETB NP+V+V2 #7 Same Structure]	86.5 nM
CUCCCGUGGUCGGCCGCCACUGGAGGCCUUGCGCGACAUGAGGAUCACCCAUGUUGGCCCGGCGUCAGGACCGGGAUCGCGUGAG [#1 Same State - Tryptophan B Attempt #10 (HarryS)]	12.2 nM
AAGGCACGAGACAUGAGGAUCACCCAUGUUCGAGGACCGGUACGGCCGCCACUCGGUGGACUCAUGGUAAAGCCGGUGAGCCAAA [AK 1.1 SS Trypt (A)]	22.5 nM
GUGUUAUGCUCGGCCGCCACUCUGACAUGAGGAUCACCCAUGUUGUACAUGAGGAUCACCCAUGUGAGGACCGGGAGAAACACGA [Exclusion Tryptophan B GF9]	209 nM
UUGACAUGAGGAUCACCCAUGUUAGCUGAAGGAGCGAGGUAGUACUCAGGUAGGUCGCAGAGAGCAGAGUUAGUUGUUCUCAUGU [X-ArgiA-ms2@4]	23.3 nM
ACAUGAGGAUCACCCAUGUGUCCUCGAAAACGAGGACCGGUACGGCCGCCACUCGAAAUAAGCGACAAGCGAAAAGCUUGUCGCA [Mat - Exclusion - Trytophan A - D22]	135 nM
GAAGGAGAGUGAUCCACUCCUUCUCUGGAAGGAGCGAGCGAAAGCUCAGGUAGGUCGCCAGAAACAUGAGGAUCACCCAUGUAAU [(A)''-(M)'-(A)'-(Arg1)-(Arg2)-(M1)-(M2)_Design7]	123 nM
AUUAAGGAUAUGUAGACGGCGGAGAAGAGACGAGGACCGGUACGGCCGCCACUCGUGUUAGUUAACAUGAGGAUCACCCAUGUAA [#07 Tryptophan A Same State]	69.6 nM
GGGUGGUAGGCGGCCGCCACUGAUUUUUAUUUAUAGAUGACAUGAGGAUCACCCAUGUUUAUAUGCAGGACCGGGCCUGUUGUGG [aaaQ]	17.6 nM
CUACAUUUGUAGAAACCGGUCAACAUUAUUCGAGGACCGGUACGGCCGCCACUCGUAUAUUUUAAUACAUGAGGAUCACCCAUGU [Tryptophan A 6]	13.6 nM
GGUCUCGAGGGCGAUACCAGCUUGAUCGUACUGGCCUGGUACAUGAGGAUCACCCAUGUAAGCCCUUGGCAGCGCGCUCGAGACC [#1 Exclusion - Theophylline B Attempt #6 (HarryS)]	29.3 nM
UGUAUGUGAUCUGAUACCAGUCCAACUGGUAAAACACGAGGAUCACCCGUGUAAAAUUGGGACCCUUGGCAGCAGAUCGCAUACU	12.6 nM
AAUGAGUGGUGGUCAAACAUGGGUGAUCAACGAGGACCGGUACGGCCGCCACUCGAUAACAUGAGGAUCACCCAUGUAAUAAUAA [|T'-M'-Trp-Ms2|_Design9]	683 nM
